Laboratory results reported in patent US20200040059A1.
Blank lines part the entries; values can stand above or below the binder they belong to.

Assays:
[1] = target: T1, CD96 (UniProt P40200); test: flow cytometry, CD96-expressing cells
T1 sequence (looked up): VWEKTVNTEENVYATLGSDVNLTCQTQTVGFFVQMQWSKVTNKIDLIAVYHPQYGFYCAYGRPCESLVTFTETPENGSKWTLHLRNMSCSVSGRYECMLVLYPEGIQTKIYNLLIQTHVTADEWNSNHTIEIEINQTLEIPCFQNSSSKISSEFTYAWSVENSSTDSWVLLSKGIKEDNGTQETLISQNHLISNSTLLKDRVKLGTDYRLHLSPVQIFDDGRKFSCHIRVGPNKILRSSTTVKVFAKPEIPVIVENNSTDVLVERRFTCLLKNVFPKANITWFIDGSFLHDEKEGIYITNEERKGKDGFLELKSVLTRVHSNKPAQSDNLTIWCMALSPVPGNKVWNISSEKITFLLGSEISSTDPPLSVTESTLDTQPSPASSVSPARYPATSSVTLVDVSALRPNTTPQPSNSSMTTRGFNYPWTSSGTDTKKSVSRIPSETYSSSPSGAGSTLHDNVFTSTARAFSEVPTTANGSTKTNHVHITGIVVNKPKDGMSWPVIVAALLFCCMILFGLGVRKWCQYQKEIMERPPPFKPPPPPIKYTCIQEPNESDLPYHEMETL

[2] = target: T2, CD226 (human) (UniProt Q15762); test: flow cytometry, CD226-expressing cells
T2 sequence: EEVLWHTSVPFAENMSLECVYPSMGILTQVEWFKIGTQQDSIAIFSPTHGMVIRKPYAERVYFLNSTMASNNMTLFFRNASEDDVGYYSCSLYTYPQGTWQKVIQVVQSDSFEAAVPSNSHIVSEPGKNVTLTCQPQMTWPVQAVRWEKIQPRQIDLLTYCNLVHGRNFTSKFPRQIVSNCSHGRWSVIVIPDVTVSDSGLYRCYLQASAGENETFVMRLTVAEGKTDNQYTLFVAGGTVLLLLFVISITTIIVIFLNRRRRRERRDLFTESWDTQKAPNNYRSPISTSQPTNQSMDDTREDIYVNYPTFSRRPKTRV

[3] = target: CD112R (human) (UniProt Q6DKI7); test: flow cytometry, cells expressing target, 25 nM
[4] = target: T2, CD226 (human); test: flow cytometry, cells expressing target, 25 nM
[5] = target: T1, CD96; test: flow cytometry, cells expressing target, 25 nM
[6] = target: T3, TIGIT (human) (UniProt Q495A1); test: flow cytometry, cells expressing target, 25 nM
T3 sequence: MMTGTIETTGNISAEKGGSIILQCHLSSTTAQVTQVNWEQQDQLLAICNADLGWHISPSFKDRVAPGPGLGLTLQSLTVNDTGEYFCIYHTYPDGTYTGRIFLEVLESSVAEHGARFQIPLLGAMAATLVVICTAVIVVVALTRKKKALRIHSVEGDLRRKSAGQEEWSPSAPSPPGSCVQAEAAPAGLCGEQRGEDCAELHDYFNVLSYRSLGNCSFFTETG

[7] = target: CD112R, expressed on transfected cells (human) (UniProt Q6DKI7); test: flow cytometry on transfected cells
[8] = target: CD96, expressed on transfected cells (UniProt P40200); test: flow cytometry on transfected cells
[9] = target: T4, human TIGIT, full length, expressed on transfected cells (human) (UniProt Q495A1); test: flow cytometry on transfected cells
T4 sequence: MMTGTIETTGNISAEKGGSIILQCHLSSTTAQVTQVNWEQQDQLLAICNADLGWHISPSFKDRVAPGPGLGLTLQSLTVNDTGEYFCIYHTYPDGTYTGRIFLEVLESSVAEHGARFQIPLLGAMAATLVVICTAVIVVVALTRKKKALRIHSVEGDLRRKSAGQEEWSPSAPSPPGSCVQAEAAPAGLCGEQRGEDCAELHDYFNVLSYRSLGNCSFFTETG

[10] = target: T1, CD96; test: flow cytometry, cells
[11] = target: T2, CD226 (human); test: flow cytometry, transfected cells
[12] = target: T3, TIGIT (human); test: flow cytometry, transfected cells
[13] = target: T3, TIGIT (human); test: flow cytometry, TIGIT-expressing cells
[14] = target: human ICOS as used for the 'ICOS OD' read-out of Table 14 (human); test: binding read as OD; format not described
human ICOS as used for the 'ICOS OD' read-out of Table 14 (human), sequence (Q9Y6W8 whole entry): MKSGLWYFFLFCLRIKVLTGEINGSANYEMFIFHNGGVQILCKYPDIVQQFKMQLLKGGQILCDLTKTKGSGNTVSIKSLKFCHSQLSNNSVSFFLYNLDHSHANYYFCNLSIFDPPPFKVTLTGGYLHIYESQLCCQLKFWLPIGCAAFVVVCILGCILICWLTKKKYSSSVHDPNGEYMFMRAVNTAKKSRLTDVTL

[15] = target: human CD28, full-length, expressed on transfected Expi293 cells (human) (UniProt P10747); test: flow cytometry on CD28-expressing Expi293 cells
[16] = target: T5, CD112R (full length, expressed on transfected cells) (human), Q6DKI7; test: flow cytometry, 20 nM; ratio to WT CD112 IgV-Fc; conditions: remark: other sources report otherwise
T5 chain: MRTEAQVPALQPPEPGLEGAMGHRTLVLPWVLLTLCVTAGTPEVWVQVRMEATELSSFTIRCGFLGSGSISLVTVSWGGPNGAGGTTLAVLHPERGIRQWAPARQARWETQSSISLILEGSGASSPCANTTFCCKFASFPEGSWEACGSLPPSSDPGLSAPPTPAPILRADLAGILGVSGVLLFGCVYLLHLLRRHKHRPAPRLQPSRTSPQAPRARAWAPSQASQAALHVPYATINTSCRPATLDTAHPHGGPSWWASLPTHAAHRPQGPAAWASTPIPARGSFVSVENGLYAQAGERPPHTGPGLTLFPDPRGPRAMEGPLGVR

[17] = target: T5, CD112R (full length, expressed on …); test: flow cytometry on cells expressing the target, 20 nM; conditions: remark: other sources report otherwise

MFI at 25 nM [3]: 812 MFI
MFI at 25 nM [4]: 154000 MFI
MFI at 25 nM [5]: 85600 MFI
MFI at 25 nM [6]: 130000 MFI
B4: CD155 variant IgV-Fc V9L, P18F, T45A, S65A, S67V, R78K, L79V, F91S, T107M, S114T (Fc fusion, not shown: a dimerising Fc or GST; small tags and cut ends)
chain: PGTGDLVVQAPTQVFGFLGDSVTLPCYLQVPNMEVTHVSQLAWARHGESGSMAVFHQTQGPAYVESKRLEFVAAKVGAELRNASLRMSGLRVEDEGNYTCLFVMFPQGSRTVDIWL

Fold Change from CD155-ECD [1]: 0.06 fold
MFI at 11.1 nM [1]: 974 MFI
Fold Change from CD155-ECD [2]: 0.06 fold
MFI at 11.1 nM [2]: 973 MFI
B5: CD155 variant IgV-Fc V9I, V10I, P18S, F20S, T45A, L79P, F91S, L104M, F108Y, G111R, S112V (Fc fusion, not shown: a dimerising Fc or GST; small tags and cut ends)
chain: WPPPGTGDIIVQAPTQVSGSLGDSVTLPCYLQVPNMEVTHVSQLAWARHGESGSMAVFHQTQGPSYSESKRLEFVAARPGAELRNASLRMSGLRVEDEGNYTCMFVTYPQRVRSVDIWL

MFI at 100 nM [7]: 2600
MFI at 100 nM [8]: 6310
MFI at 100 nM [9]: 79500
B6: CD155 variant T45Q, S52M, L104E IgV-Fc (Fc fusion, not shown: a dimerising Fc or GST; small tags and cut ends)
chain: PGTGDVVVQAPTQVPGFLGDSVTLPCYLQVPNMEVTHVSQLQWARHGEMGSMAVFHQTQGPSYSESKRLEFVAARLGAELRNASLRMFGLRVEDEGNYTCEFVTFPQGSRSVDIWL

MFI at 100 nM [7]: 2620
MFI at 100 nM [8]: 3750
MFI at 100 nM [9]: 122000
B9: CD155 variant T45Q, S52R, L104E IgV-Fc (Fc fusion, not shown: a dimerising Fc or GST; small tags and cut ends)
chain: PGTGDVVVQAPTQVPGFLGDSVTLPCYLQVPNMEVTHVSQLQWARHGERGSMAVFHQTQGPSYSESKRLEFVAARLGAELRNASLRMFGLRVEDEGNYTCEFVTFPQGSRSVDIWL

ICOS OD parental ratio (ratio to WT ICOSL ECD-Fc) [14]: 1.76
MFI [15]: 54 MFI
MFI parental ratio (ratio to WT ICOSL ECD-Fc) [15]: 3
B11: ICOSL variant N52S/T113E ECD-Fc fusion (Fc fusion, UniProt O75144 19-256 with N52S T113E, looked up, part only)
extracellular domain: DTQEKEVRAMVGSDVELSCACPEGSRFDLNDVYVYWQTSESKTVVTYHIPQSSSLENVDSRYRNRALMSPAGMLRGDFSLRLFNVTPQDEQKFHCLVLSQSLGFQEVLSVEVELHVAANFSVPVVSAPHSPSQDELTFTCTSINGYPRPNVYWINKTDNSLLDQALQNDTVFLNMRGLYDVVSVLRIARTPSVNIGCCIENVLLQQNLTVGSQTGNDIGERDKITENPVSTGEKNAAT
modifications: extracellular domain human IgG1 Fc fusion

MFI [15]: 16 MFI
B12: ICOSL variant F120S/Y152H/N201S ECD-Fc fusion (Fc fusion, not shown: a dimerising Fc or GST; small tags and cut ends)
chain: DTQEKEVRAMVGSDVELSCACPEGSRFDLNDVYVYWQTSESKTVVTYHIPQNSSLENVDSRYRNRALMSPAGMLRGDFSLRLFNVTPQDEQKFHCLVLSQSLGFQEVLSVEVTLHVAANSSVPVVSAPHSPSQDELTFTCTSINGYPRPNVHWINKTDNSLLDQALQNDTVFLNMRGLYDVVSVLRIARTPSVNIGCCIESVLLQQNLTVGSQTGNDIGERDKITENPVSTGEKNAAT

Fold Increase to WT IgV [16]: 0.75 fold
MFI at 20 nM [17]: 1250
B13: WT CD112-Fc ECD, Q92692 32-360 (Fc fusion, not shown: a dimerising Fc or GST; small tags and cut ends)
chain: QDVRVQVLPEVRGQLGGTVELPCHLLPPVPGLYISLVTWQRPDAPANHQNVAAFHPKMGPSFPSPKPGSERLSFVSAKQSTGQDTEAELQDATLALHGLTVEDEGNYTCEFATFPKGSVRGMTWLRVIAKPKNQAEAQKVTFSQDPTTVALCISKEGRPPARISWLSSLDWEAKETQVSGTLAGTVTVTSRFTLVPSGRADGVTVTCKVEHESFEEPALIPVTLSVRYPPEVSISGYDDNWYLGRTDATLSCDVRSNPEPTGYDWSTTSGTFPTSAVAQGSQLVIHAVDSLFNTTFVCTVTNAVGMGRAEQVIFVRETPNTAGAGATGG

The next lines start with the binder.

B1: CD155 variant IgV-Fc P18T, M36T, S65A, S67E, L79Q, A81T, F91S, G111R (Fc fusion, not shown: a dimerising Fc or GST; small tags and cut ends)
chain: PGTGDVVVQAPTQVTGFLGDSVTLPCYLQVPNTEVTHVSQLTWARHGESGSMAVFHQTQGPAYEESKRLEFVAARQGTELRNASLRMSGLRVEDEGNYTCLFVTFPQRSRSVDIWL
MFI at 11.1 nM [1]: 963 MFI
MFI at 11.1 nM [2]: 1130 MFI

B2: CD155 variant IgV-Fc P18T, D23G, Q60R, S67L, L79P, F91S, T107M, V115A (Fc fusion, not shown: a dimerising Fc or GST; small tags and cut ends)
chain: PGTGDVVVQAPTQVTGFLGGSVTLPCYLQVPNMEVTHVSQLTWARHGESGSMAVFHRTQGPSYLESKRLEFVAARPGAELRNASLRMSGLRVEDEGNYTCLFVMFPQGSRSADIWL
MFI at 25 nM [3]: 874 MFI
MFI at 25 nM [4]: 30900 MFI
MFI at 25 nM [5]: 109000 MFI
MFI at 25 nM [6]: 64100 MFI

B3: CD155 variant IgV-Fc T15S, P18S, Y30H, Q32L, Q62R, L79P, F91S, T107M (Fc fusion, not shown: a dimerising Fc or GST; small tags and cut ends)
chain: PGTGDVVVQAPSQVSGFLGDSVTLPCHLLVPNMEVTHVSQLTWARHGESGSMAVFHQTRGPSYSESKRLEFVAARPGAELRNASLRMSGLRVEDEGNYTCLFVMFPQGSRSVDIWL
MFI at 25 nM [3]: 1060 MFI
MFI at 25 nM [4]: 2090 MFI
MFI at 25 nM [6]: 16200 MFI

B7: CD155 variant IgV-Fc P18S, H59R, A76G, R78S, L79P (Fc fusion, not shown: a dimerising Fc or GST; large carriers; small tags and cut ends)
chain: PGTGDVVVQAPTQVSGFLGDSVTLPCYLQVPNMEVTHVSQLTWARHGESGSMAVFRQTQGPSYSESKRLEFVGASPGAELRNASLRMFGLRVEDEGNYTCLFVTFPQGSRSVDIWL
MFI at 25 nM [3]: 1010 MFI
MFI at 25 nM [4]: 79400 MFI
MFI at 25 nM [5]: 44500 MFI
MFI at 25 nM [6]: 131000 MFI

B8: CD155 G7E, P18T, Y30C, F91S IgV-Fc (Fc fusion, not shown: a dimerising Fc or GST; small tags and cut ends)
chain: PGTEDVVVQAPTQVTGFLGDSVTLPCCLQVPNMEVTHVSQLTWARHGESGSMAVFHQTQGPSYSESKRLEFVAARLGAELRNASLRMSGLRVEDEGNYTCLFVTFPQGSRSVDIWL
MFI [10]: 7910
MFI [11]: 12900
MFI [12]: 13000

B10: CD155 variant IgV-Fc P18S, S42G, T45V, F58L, S67W, L104N (Fc fusion, not shown: a dimerising Fc or GST; large carriers; small tags and cut ends)
chain: PGTGDVVVQAPTQVSGFLGDSVTLPCYLQVPNMEVTHVGQLVWARHGESGSMAVLHQTQGPSYWESKRLEFVAARLGAELRNASLRMFGLRVEDEGNYTCNFVTFPQGSRSVDIWL
MFI at 100 nM [13]: 14100 MFI

B14: CD155 variant IgV-Fc P18T, S52A, V57A, Q60R, Q62K, S65C, L79P, F91T, N100Y, T107M (Fc fusion, not shown: a dimerising Fc or GST; large carriers; small tags and cut ends)
chain: PGTGDVVVQAPTQVTGFLGDSVTLPCYLQVPNMEVTHVSQLTWARHGEAGSMAAFHRTKGPCYSESKRLEFVAARPGAELRNASLRMTGLRVEDEGYYTCLFVMFPQGSRSVDIWL
MFI at 25 nM [3]: 908 MFI
MFI at 25 nM [5]: 3790 MFI
MFI at 25 nM [6]: 187000 MFI
